Results published in patent US9029508 (dated 2015).

B1: DVD523 DLL4 arm (antibody, V domains shown)
VH: EVQLQQSGPELEKPGASVKISCKASGYSFTGYNMNWVKQSNGKSLEWIGNIDPYFGGTNYNQKFKGKATLTVDKSSSTAYMQLKSLTSEDSAVYYCARNYDYDGGCFDYWGQGTTLTVSS
VL: QAVVTQESALTTSPGETVTLTCRSSTGAVTTSNYANWVQEKPDHLFTGLIGGTNNRAPGVPARFSGSLIGDKAALTITGAQTEDEAIYFCALWYSNHWVFGGGTKLTVLG
modifications: DVD-Ig outer
B2: DVD526 DLL4 arm (antibody, V domains shown)
VH: B1 VH
VL: B1 VL
modifications: DVD-Ig inner
B3: DVD532 DLL4 arm (antibody, V domains shown)
VH: B1 VH
VL: B1 VL
modifications: DVD-Ig inner
B4: DVD525 DLL4 arm (antibody, V domains shown)
VH: B1 VH
VL: B1 VL
modifications: DVD-Ig outer
B5: DVD533 DLL4 arm (antibody, V domains shown)
VH: B1 VH
VL: B1 VL
modifications: DVD-Ig outer
B6: DVD511 DLL4 arm (antibody, V domains shown)
VH: B1 VH
VL: B1 VL
modifications: DVD-Ig outer
B7: DVD493 DLL4 arm (antibody, V domains shown)
VH: EVQLQQSGPELVKPGASVKMSCKASGYTFTSYVINWVKQKPGQGLEWIGLINPYNDGTKYNEKFKVKATLTSDKSSSTAYMELSSLTSEDSAVYYCASYYYGSRYYFDYWGQGTTLTVSS
VL: DIQMTQSSSYLSVSLGGRVTITCKASDHINNWLAWYQQKPGNAPRLLISGATSLETGVPSRFSGSGSGKDYTLSITSLQTEDVATYYCQQYWSIPLTFGAGTKLELKR
modifications: DVD-Ig outer
B8: DVD505 DLL4 arm (antibody, V domains shown)
VH: B7 VH
VL: B7 VL
modifications: DVD-Ig outer
B9: DVD510 DLL4 arm (antibody, V domains shown)
VH: B7 VH
VL: B7 VL
modifications: DVD-Ig inner
B10: DVD491 DLL4 arm (antibody, V domains shown)
VH: B7 VH
VL: B7 VL
modifications: DVD-Ig outer
B11: DVD498 DLL4 arm (antibody, V domains shown)
VH: B7 VH
VL: B7 VL
modifications: DVD-Ig inner
B12: DVD504 DLL4 arm (antibody, V domains shown)
VH: B7 VH
VL: B7 VL
modifications: DVD-Ig inner
B13: DVD465 DLL4 arm (antibody)
chain 1: EVQLVESGGGLVQPGGSLRLSCAASGFTFTDNWISWVRQAPGKGLEWVGYISPNSGFTYYADSVKGRFTISADTSKNTAYLQMNSLRAEDTAVYYCARDNFGGYFDYWGQGTLVTVSS
chain 2: DIQMTQSPSSLSASVGDRVTITCRASQDVSTAVAWYQQKPGKAPKLLIYSASFLYSGVPSRFSGSGSGTDFTLTISSLQPEDFATTYYCQQSYTGTVTFGQGTKVEIKR
modifications: DVD-Ig outer
B14: DVD466 DLL4 arm (antibody)
chain 1: B13 chain 1
chain 2: B13 chain 2
modifications: DVD-Ig inner
B15: DVD469 DLL4 arm (antibody)
chain 1: B13 chain 1
chain 2: B13 chain 2
modifications: DVD-Ig outer
B16: DVD480 DLL4 arm (antibody)
chain 1: B13 chain 1
chain 2: B13 chain 2
modifications: DVD-Ig inner
B17: DVD483 DLL4 arm (antibody)
chain 1: B13 chain 1
chain 2: B13 chain 2
modifications: DVD-Ig outer
B18: DVD471 DLL4 arm (antibody)
chain 1: B13 chain 1
chain 2: B13 chain 2
modifications: DVD-Ig outer
B19: DVD449 DLL4 arm (antibody, V domains shown)
VH: QVQLVQSGAEVKKPGASVKISCKASGYSFTAYYIHWVKQAPGQGLEWIGYISSYNGATNYNQKFKGRVTFTTDTSTSTAYMELRSLRSDDTAVYYCARDYDYDVGMDYWGQGTLVTVSS
VL: DIVMTQSPDSLAVSLGERATISCRASESVDNYGISFMKWFQQKPGQPPKLLIYAASNQGSGVPDRFSGSGSGTDFTLTISSLQAEDVAVYYCQQSKEVPWTFGGGTKVEIKR
modifications: DVD-Ig outer
B20: DVD441 DLL4 arm (antibody, V domains shown)
VH: B19 VH
VL: B19 VL
modifications: DVD-Ig outer
B21: DVD456 DLL4 arm (antibody, V domains shown)
VH: B19 VH
VL: B19 VL
modifications: DVD-Ig inner
B22: DVD462 DLL4 arm (antibody, V domains shown)
VH: B19 VH
VL: B19 VL
modifications: DVD-Ig inner
B23: DVD442 DLL4 arm (antibody, V domains shown)
VH: B19 VH
VL: B19 VL
modifications: DVD-Ig inner
B24: DVD454 DLL4 arm (antibody, V domains shown)
VH: B19 VH
VL: B19 VL
modifications: DVD-Ig inner

biological target: DLL4 (human, UniProt Q9NR61); experiment: ELISA
Sequence (Q9NR61 27-524): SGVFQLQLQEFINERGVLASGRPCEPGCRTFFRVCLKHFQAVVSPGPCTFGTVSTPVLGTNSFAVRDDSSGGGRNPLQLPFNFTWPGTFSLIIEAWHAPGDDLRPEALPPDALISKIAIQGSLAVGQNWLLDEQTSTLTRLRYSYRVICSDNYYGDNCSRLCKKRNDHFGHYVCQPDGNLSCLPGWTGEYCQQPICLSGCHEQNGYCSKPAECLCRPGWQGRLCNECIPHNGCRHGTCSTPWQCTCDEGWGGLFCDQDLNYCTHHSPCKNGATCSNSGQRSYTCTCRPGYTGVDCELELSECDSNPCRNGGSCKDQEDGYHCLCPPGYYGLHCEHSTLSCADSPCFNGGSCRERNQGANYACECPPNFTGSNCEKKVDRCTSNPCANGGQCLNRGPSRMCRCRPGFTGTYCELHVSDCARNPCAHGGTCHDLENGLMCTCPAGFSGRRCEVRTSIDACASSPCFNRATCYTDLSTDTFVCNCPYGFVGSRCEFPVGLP

Binder	EC50 [nM]
B1	0.09
B2	1.57
B3	1.43
B4	1
B5	0.25
B6	0.1
B7	0.06
B8	0.09
B9	0.42
B10	0.39
B11	0.45
B12	0.53
B13	0.57
B14	19.8
B15	2.78
B16	0.6
B17	0.63
B18	0.89
B19	0.36
B20	0.04
B21	2.48
B22	7.99
B23	10.6
B24	1.01
